Data from patent US20040248202A1, “Bacteriorhodopsin/G protein-coupled receptor chimeras” (Wisconsin Alumni Research Foundation, priority 1998, published 2004).

Molecular target: transducin (Homo sapiens, UniProt P11488)
Assay: GTPyS uptake assay: effect of BR-rhodopsin loop 3 chimeras on GDP-GTP exchange on transducin
Assay type: biochemical
Protocol: The ability of the chimeric protein to promote GTP-GDP exchange was evaluated for each of three BR-rhodopsin loop 3 chimeras by evaluating the effect of the chimera on the rate of GDP-GTP exchange on transducin using a GTPyS uptake assay, as described below.
Chimeric or bacteriorhodopsin protein (1.7 uM) was incubated with 0.8 uM holotransducin with 10 nM ^35S radiolabeled GTPyS in buffer (20 mM Hepes (pH 7.5), 5 mM MgCl2, 1 mM DTT, 0.1 mM EDTA, and 20 mM NaCl). The reaction was incubated at 30° C. for 5, 10, 15 or 30 minutes. The reaction was terminated by transferring aliquots of the reaction mixture to nitrocellulose filters (0.45 um) prewetted with wash buffer (10 mM Tris (pH 7.5), 5 mM MgCl2, 100 mM NaC1, 0.1 mM EDTA) and placed on a vacuum manifold. The filters were then washed with 8 ml of wash buffer. The filters were then placed overnight in scintillation vials filled with 20 ml of scintillation cocktail. The activity of the vials was counted by a Liquid Scintillation Counter. For the BR-Rhodopsin loop 3 chimeras, in which the rhodopsin intracellular loop 3 replaced the native BR intracellular loop 3 and was fused from T157 on BR TM 5 to V167 on BR TM 6, activity was determined by an increased uptake of GTPS over basal exchange by transducin alone.
A time course study was next performed for Rhodopsin Insert Y223 to M253 (3C)
The following experiments repeated the study of GTPγS exchange with a new culture of the BR-Rhodopsin chimera for Rhodopsin Insert Y223 (3C) as well as three new chimeras.

[1] = 10 Minutes, new culture of 3C and three new chimeras

Sequence of transducin (P11488 2-350 limits assumed): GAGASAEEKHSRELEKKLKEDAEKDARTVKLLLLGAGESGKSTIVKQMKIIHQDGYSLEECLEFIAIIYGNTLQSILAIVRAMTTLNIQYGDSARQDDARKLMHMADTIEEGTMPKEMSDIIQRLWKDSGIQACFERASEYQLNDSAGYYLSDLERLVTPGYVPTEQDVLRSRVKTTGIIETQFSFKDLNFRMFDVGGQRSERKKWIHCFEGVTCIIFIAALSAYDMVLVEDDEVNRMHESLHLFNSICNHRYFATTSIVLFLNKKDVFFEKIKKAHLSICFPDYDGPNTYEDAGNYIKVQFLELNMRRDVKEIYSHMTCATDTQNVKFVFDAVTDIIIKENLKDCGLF
Sequence of transducin (P62873 2-340 partner limits assumed): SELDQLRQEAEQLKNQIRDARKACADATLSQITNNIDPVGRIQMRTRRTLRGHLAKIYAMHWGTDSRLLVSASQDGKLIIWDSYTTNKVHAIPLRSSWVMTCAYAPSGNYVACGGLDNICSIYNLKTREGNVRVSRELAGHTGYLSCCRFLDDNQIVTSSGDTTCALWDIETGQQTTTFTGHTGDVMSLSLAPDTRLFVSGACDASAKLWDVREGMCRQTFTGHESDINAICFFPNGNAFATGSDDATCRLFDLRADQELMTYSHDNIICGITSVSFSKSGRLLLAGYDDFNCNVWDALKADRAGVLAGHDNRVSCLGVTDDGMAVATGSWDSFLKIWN
Sequence of transducin (P63211 2-71 partner limits assumed): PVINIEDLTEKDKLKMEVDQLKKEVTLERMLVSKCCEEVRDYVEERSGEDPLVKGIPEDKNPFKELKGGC

B1: 3C: bacteriorhodopsin chimera, loop 3 replaced by bovine rhodopsin Y223-M253; loop amino acid sequence SEQ ID NO:30 (protein)
chain: QAQITGRPEWIWLALGTALMGLGTLYFLVKGMGVSDPDAKKFYAITTLVPAIAFTMYLSMLLGYGLTMVPFGGEQNPIYWARYADWLFTTPLLLLDLALLVDADQGTILALVGADGIMIGTGLVGALTKVYSYRFVWWAISTAAMLYILYVLFFGFTYGQLVFTVKEAAAQQQESATTQKAEKEVTRMVASTFKVLRNVTVVLWSAYPVVWLIGSEGAGIVPLNIETLLFMVLDVSAKVGFGLILLRSRAIFGEAEAPEPSAGDGAAATSD
100 μM GDP, 10 Minutes
  Activation (3C) (×10°) over Basal Exchange: 1.67 ×10°
5 Minutes
  Activation by 3C (×100%) Over Basal Exchange: 1.56 ×100%
10 Minutes
  Activation by 3C (×100%) Over Basal Exchange: 1.95 ×100%
10 Minutes, 100 uM GDP
  Specific counts (Lattice Form): 12577 counts
[1]
  Activation (×100%) Over Basal Exchange: 1.44 ×100%
  Specific counts (Lattice Form): 77125 counts
10 Minutes, no peptide (8 uM peptide experiment)
  Specific counts (Lattice Form): 51423 counts
10 Minutes, no peptide (50 uM peptide experiment)
  SPECIFIC COUNTS: (Lattice Form): 93448 counts
15 Minutes
  Activation by 3C (×100%) Over Basal Exchange: 1.97 ×100%
Time course, 5 min
  Specific counts (Lattice Form): 26273 counts
Time course, 10 min
  Specific counts (Lattice Form): 51423 counts
Time course, 15 min
  Specific counts (Lattice Form): 66566 counts

B2: 3B: bacteriorhodopsin chimera, loop 3 replaced by bovine rhodopsin Y223-T251; loop amino acid sequence SEQ ID NO:28 (protein)
chain: QAQITGRPEWIWLALGTALMGLGTLYFLVKGMGVSDPDAKKFYAITTLVPAIAFTMYLSMLLGYGLTMVPFGGEQNPIYWARYADWLFTTPLLLLDLALLVDADQGTILALVGADGIMIGTGLVGALTKVYSYRFVWWAISTAAMLYILYVLFFGFTYGQLVFTVKEAAAQQQESATTQKAEKEVTVASTFKVLRNVTVVLWSAYPVVWLIGSEGAGIVPLNIETLLFMVLDVSAKVGFGLILLRSRAIFGEAEAPEPSAGDGAAATSD
[1]
  Activation (×100%) Over Basal Exchange: 1.17 ×100%

B3: 3D: bacteriorhodopsin chimera, loop 3 replaced by bovine rhodopsin Q225-T251; loop amino acid sequence SEQ ID NO:32 (protein)
chain: QAQITGRPEWIWLALGTALMGLGTLYFLVKGMGVSDPDAKKFYAITTLVPAIAFTMYLSMLLGYGLTMVPFGGEQNPIYWARYADWLFTTPLLLLDLALLVDADQGTILALVGADGIMIGTGLVGALTKVYSYRFVWWAISTAAMLYILYVLFFGFTQLVFTVKEAAAQQQESATTQKAEKEVTVASTFKVLRNVTVVLWSAYPVVWLIGSEGAGIVPLNIETLLFMVLDVSAKVGFGLILLRSRAIFGEAEAPEPSAGDGAAATSD
[1]
  Activation (×100%) Over Basal Exchange: 1.0 ×100%

B4: 3E: bacteriorhodopsin chimera, loop 3 replaced by bovine rhodopsin G224-M253; loop amino acid sequence SEQ ID NO:34 (protein)
chain: QAQITGRPEWIWLALGTALMGLGTLYFLVKGMGVSDPDAKKFYAITTLVPAIAFTMYLSMLLGYGLTMVPFGGEQNPIYWARYADWLFTTPLLLLDLALLVDADQGTILALVGADGIMIGTGLVGALTKVYSYRFVWWAISTAAMLYILYVLFFGFTGQLVFTVKEAAAQQQESATTQKAEKEVTRMVASTFKVLRNVTVVLWSAYPVVWLIGSEGAGIVPLNIETLLFMVLDVSAKVGFGLILLRSRAIFGEAEAPEPSAGDGAAATSD
[1]
  Activation (×100%) Over Basal Exchange: 1.46 ×100%
